B1: angiotensinogen (protein, UniProt P01019 25-476, looked up)
Angiotensinogen: DRVYIHPFHLVIHNESTCEQLAKANAGKPKDPTFIPAPIQAKTSPVDEKALQDQLVLVAAKLDTEDKLRAAMVGMLANFLGFRIYGMHSELWGVVHGATVLSPTAVFGTLASLYLGALDHTADRLQAILGVPWKDKNCTSRLDAHKVLSALQAVQGLLVAQGRADSQAQLLLSTVVGVFTAPGLHLKQPFVQGLALYTPVVLPRSLDFTELDVAAEKIDRFMQAVTGWKTGCSLMGASVDSTLAFNTYVHFQGKMKGFSLLAEPQEFWVDNSTSVSVPMLSGMGTFQHWSDIQDNFSVTQVPFTESACLLLIQPHYASDLDKVEGLTFQQNSLNWMKKLSPRTIHLTMPQLVLQGSYDLQDLLAQAELPAILHTELNLQKLSNDRIRVGEVLNSIFFELEADEREPTESTQQLNKPEVLEVTLNRPFLFAVYDQSATALHFLGRVANPLSTA
notes: AGT purified from human plasma; specific Ang I content 20 μg Ang I/mg protein
B2: ^125I-AGT: Purified AGT labeled with ^125I using iodobeads (protein, UniProt P01019 25-476, looked up)
Angiotensinogen: B1 Angiotensinogen
modifications: 125I label
notes: Purified AGT labeled with ^125I using iodobeads

Tests used:
CRL-7459 fibroblasts = test: AGT uptake in other placental cell lines; assay type: cell-based; conditions: fibroblasts from human placenta at 40 weeks gestation (CRL-7459)
Source text: (§1) The cells used in Examples 1-4 are fibroblasts originally derived from a human placenta obtained at 5 months gestation. Binding studies were also done with fibroblasts derived from a human placenta obtained at 37 weeks gestation (CRL-7458) and with fibroblasts derived from a human placenta at 40 weeks gestation (CRL-7459). These cells also took up AGT.

CRL-7458 fibroblasts = test: AGT uptake in other placental cell lines; assay type: cell-based; conditions: fibroblasts from human placenta at 37 weeks gestation (CRL-7458)
Source text: as §1

[1] = system: AGT receptor on CRL-7548 placental cells; test: Competitive binding study (unlabeled AGT added at zero time); design: species or system human; conditions: prior addition of 100-fold excess of unlabeled AGT, FIG. 2
Protocol: (§2) Cell Culture: CRL-7548 placental cells obtained from American Type Culture Collection were cultured in 89% Dulbecco's modification of Eagle medium (DEME) (Cellgro, Herndon, Va.), 10% fetal bovine serum (FBS) (Sigma, St. Louis, Mo.), 1% penicillin-streptomycin (5,000 U/ml and 5,000 μg/ml) (Cellgro) in a humidified atmosphere of 5.0% CO2 and […] at 37° C. The cells were passed in FBS-free DEME before experimentation, seeded in 35 mm diameter plastic wells and cultured for two days to reach about 80-90% confluence.
(§3) Purified AGT was labeled with ^125I using iodobeads Pierce, Rockford, Ill.), 5 mCi/0.5 mg AGT in 0.1 mol/L sodium phosphate buffer, pH 6.0. The bound isotope was separated from the free isotope by gel filtration on Sephadex G-25.
(§4) Labeled AGT, 3 μg, was added to each well containing 1 ml DEME and 2-3×10^4 cells. The cells were harvested at 5 min, and 2, 4, 8, 16 and 24 h, washed five times with DEME, lysed in a buffer containing 0.1 mol/L Tris, 2 mmol/L EDTA, 1% Triton-X 100, 1 μmol/L DTT, pH 7.8, and the radioactivity of the whole lysate measured. Each experiment contained two duplicates and the reported values are the mean of two experiments. The results are presented graphically in FIG. 1
This Example was carried out as described in Example 1, except that a 100-fold excess of unlabeled AGT was added at zero time. The cells were harvested at 5 min, and 4, 8 and 24 h. […]

[2] = system: AGT receptor on CRL-7548 placental cells; test: Competitive displacement study (unlabeled AGT added at 8 h); assay type: binding, human
Protocol: as §2, §3, §4
[…] The cells were harvested at 5 min and at 2 intervals through 18 h.

CRL-7548 placental cells = test: Acid wash study (surface-bound versus internalized AGT); assay type: cell-based, human; conditions: for bound AGT removed from the cells by acid wash: 0.2 mol/L acetic acid, 0.5 mol/L NaCl, pH 2.5, 4° C., at 8 h
Protocol: as §2, §3, §4
This Example was carried out as described in Example 1. At 8 h, the cells in one set of duplicate wells were washed five times with DEME. Another set of duplicate samples were incubated with 0.2 mol/L acetic acid, 0.5 mol/L NaCl, pH 2.5, on ice (4° C.) for 6 min, and then washed five times with the acid wash. The control duplicates and the acid-washed duplicates were lysed and radioactivity was measured.

[3] = system: AGT receptor on CRL-7548 placental cells; test: AGT binding: 125I-labeled AGT bound by placental-derived cells; design: species or system human; conditions: 3 μg labeled AGT per well, 2-3×10^4 CRL-7548 cells, FIG. 1
Protocol: as §2
The AGT used in the Examples was purified from human plasma as described in Tewksbury (1983) Fed. Proc. 42:2724-2728; and Tewksbury et al. (1981) Biochem. Biophys. Res. Commun. 99:1311-1315. The specific Ang I content was 20 μg Ang I/mg protein. The theoretical value is 21 μg Ang I/mg protein.
as §3
Labeled AGT, 3 μg, was added to each well containing 1 ml DEME and 2-3×10^4 cells. The cells were harvested at 5 min, and 2, 4, 8, 16 and 24 h, washed five times with DEME, lysed in a buffer containing 0.1 mol/L Tris, 2 mmol/L EDTA, 1% Triton-X 100, 1 μmol/L DTT, pH 7.8, and the radioactivity of the whole lysate measured. […]

[4] = from displacement by unlabeled AGT

Molecule	AGT uptake (CRL-7459 fibroblasts)	AGT uptake (CRL-7458 fibroblasts)	decrease in maximal binding of 125I-AGT [1] [%]	bound 125I-AGT displaced ([2]; excess of unlabeled AGT added, FIG. 3) [%]	share of AGT bound to an AGT-specific receptor [2, 4] [%]	share of total binding attributed to nonspecific binding [2, 4]	bound AGT removed from the cells by acid wash (CRL-7548 placental cells) [%]	bound AGT internalized by the cells (CRL-7548 placental cells; inferred from acid wash at 8 h)	time to saturation of binding by placental-derived cells [3] [h]
B1	took up AGT	took up AGT	54	70	70	approximately 30%	46	about half	–
B2	–	–	–	–	–	–	46	–	2 to 4

Reference: patent US7250265B2, “Method of detecting and evaluating angiotensinogen receptor-modulating compounds using placental cells” (Marshfield Clinic, priority 2001, dated 2007)
